Experimental data as given in the supplement of paper PMC9732359.
± gives the uncertainty stated by the source.

Assay: protein stability index of a GFP-peptide fusion (yeast GPS) (PSI 1-4); higher = more stable; sorted into four equal gates, so the index is relative within each strain
How it was run: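 Mid-log yeast cultures in leucine-free medium, carrying a pooled plasmid library, were sorted into four equal gates by their GFP/Cherry fluorescence ratio. Each plasmid expressed Cherry along with GFP fused upstream of a tiled 17-residue yeast protein peptide. Plasmids recovered from each gate were PCR-amplified and Illumina-sequenced, with reads assigned to strains by barcodes. The protein stability index was obtained by summing each gate's read frequency weighted by its gate number.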

## KVGAEMMMQQQLKNVQL [MED2]
doa10∆
  protein stability index: 2.54 ± 0.11
pdr5∆
  protein stability index: 2.6 ± 0.085
san1∆
  protein stability index: 2.96 ± 0.07
ubr1∆
  protein stability index: 2.66 ± 0.085

## KIPLFTFAKSKNYSRPS [SIR4]
doa10∆
  protein stability index: 2.39 ± 0.092
pdr5∆
  protein stability index: 2.12 ± 0.081
san1∆
  protein stability index: 1.74 ± 0.1
ubr1∆
  protein stability index: 2.42 ± 0.064

## WDDHTKKPLSMALNKVL [CDC53]
doa10∆
  protein stability index: 1.99 ± 0.069
pdr5∆
  protein stability index: 2.29 ± 0.076
san1∆
  protein stability index: 2.36 ± 0.056
ubr1∆
  protein stability index: 1.94 ± 0.048

## SSLVRSCGEEEFFSTNW [REC8]
doa10∆
  protein stability index: 3.49 ± 0.23
pdr5∆
  protein stability index: 3.52 ± 0.18
ubr1∆
  protein stability index: 3.18 ± 0.2

## INKIVEILTNQQRGITY [YGR119C/NUP57]
doa10∆
  protein stability index: 1.64 ± 0.073
pdr5∆
  protein stability index: 1.99 ± 0.12
san1∆
  protein stability index: 2.12 ± 0.13
ubr1∆
  protein stability index: 2.09 ± 0.065

## PTTNEPAKPALSFGTAT [YJL041W/NSP1]
doa10∆
  protein stability index: 2.97 ± 0.074
pdr5∆
  protein stability index: 3.08 ± 0.063
san1∆
  protein stability index: 2.96 ± 0.053
ubr1∆
  protein stability index: 3.12 ± 0.042

## RELARIKKYASVVRVLV [RPL3]
doa10∆
  protein stability index: 1.32 ± 0.09
pdr5∆
  protein stability index: 1.17 ± 0.12
san1∆
  protein stability index: 1.13 ± 0.18
ubr1∆
  protein stability index: 1.2 ± 0.11

## NLKVELKEQSEQLKEQM [SMC4]
doa10∆
  protein stability index: 3.27 ± 0.055
pdr5∆
  protein stability index: 3.2 ± 0.067
san1∆
  protein stability index: 3.29 ± 0.035
ubr1∆
  protein stability index: 3.2 ± 0.057

## YSKDAKEIYYTPDPSEL [FAS2]
doa10∆
  protein stability index: 2.44 ± 0.026
pdr5∆
  protein stability index: 2.81 ± 0.028
san1∆
  protein stability index: 2.6 ± 0.026
ubr1∆
  protein stability index: 2.619 ± 0.024

## PDILATDLIREKTMMTF [YCS4]
doa10∆
  protein stability index: 2.28 ± 0.078
pdr5∆
  protein stability index: 3.08 ± 0.081
san1∆
  protein stability index: 2.86 ± 0.082
ubr1∆
  protein stability index: 2.62 ± 0.056

## AVVVRGRYAGKKVVIVK [RPL27A]
doa10∆
  protein stability index: 3.13 ± 0.11
pdr5∆
  protein stability index: 3.38 ± 0.067
san1∆
  protein stability index: 3.03 ± 0.074
ubr1∆
  protein stability index: 2.81 ± 0.082

## IEEIEYNVKNIIQGRKN [PCI8]
doa10∆
  protein stability index: 2.38 ± 0.059
pdr5∆
  protein stability index: 2.18 ± 0.052
san1∆
  protein stability index: 2.39 ± 0.095
ubr1∆
  protein stability index: 1.76 ± 0.042

## PQAILAKNSIIDSSNLP [SWI1]
doa10∆
  protein stability index: 2.02 ± 0.061
pdr5∆
  protein stability index: 2.42 ± 0.061
san1∆
  protein stability index: 2.32 ± 0.05
ubr1∆
  protein stability index: 2.36 ± 0.04

## AQFRVPRYHSKNSFQQA [SWP82]
doa10∆
  protein stability index: 2.5 ± 0.075
pdr5∆
  protein stability index: 2.57 ± 0.065
san1∆
  protein stability index: 2.37 ± 0.083
ubr1∆
  protein stability index: 2.62 ± 0.047

## GNVLINDTLPDEISPEL [SNU114]
doa10∆
  protein stability index: 2.99 ± 0.089
pdr5∆
  protein stability index: 2.77 ± 0.097
san1∆
  protein stability index: 3.32 ± 0.081
ubr1∆
  protein stability index: 2.71 ± 0.17

## LLHNHLKSIESLKLENS [SMC2]
doa10∆
  protein stability index: 1.4 ± 0.1
pdr5∆
  protein stability index: 1.82 ± 0.11
san1∆
  protein stability index: 1.24 ± 0.28
ubr1∆
  protein stability index: 2.52 ± 0.21

## LEALRQNYRLDGRSFDQ [RRP45]
doa10∆
  protein stability index: 2.43 ± 0.11
pdr5∆
  protein stability index: 1.97 ± 0.12
san1∆
  protein stability index: 1.61 ± 0.14
ubr1∆
  protein stability index: 2.81 ± 0.086

## ALKDPQTDADRVKDPQW [RIP1]
doa10∆
  protein stability index: 3.26 ± 0.081
pdr5∆
  protein stability index: 3.68 ± 0.23
san1∆
  protein stability index: 3.18 ± 0.25
ubr1∆
  protein stability index: 3.6 ± 0.16

## QKIMILQRTILNRIINH [RGR1]
doa10∆
  protein stability index: 1.81 ± 0.068
pdr5∆
  protein stability index: 1.83 ± 0.067
san1∆
  protein stability index: 2 ± 0.076
ubr1∆
  protein stability index: 1.7 ± 0.055

## LAVLALVIVKKGEQELE [RPS6A]
doa10∆
  protein stability index: 1.61 ± 0.038
pdr5∆
  protein stability index: 1.56 ± 0.045
san1∆
  protein stability index: 2 ± 0.072
ubr1∆
  protein stability index: 2.54 ± 0.05

## APLNLEIPAYEFDGDKV [RIP1]
doa10∆
  protein stability index: 2.6 ± 0.099
pdr5∆
  protein stability index: 2.54 ± 0.096
san1∆
  protein stability index: 2.55 ± 0.077
ubr1∆
  protein stability index: 2.72 ± 0.077

## THVANFMNDAAADVSAV [YML103C/NUP188]
doa10∆
  protein stability index: 2.79 ± 0.097
pdr5∆
  protein stability index: 2.77 ± 0.073
san1∆
  protein stability index: 2.44 ± 0.081
ubr1∆
  protein stability index: 2.84 ± 0.049

## KVLINDQLSTISMILRN [SWI1]
doa10∆
  protein stability index: 2.28 ± 0.047
pdr5∆
  protein stability index: 2.79 ± 0.062
san1∆
  protein stability index: 2.17 ± 0.07
ubr1∆
  protein stability index: 2.68 ± 0.042

## SQFLKRVHANLQCISQI [SNF11]
doa10∆
  protein stability index: 1.17 ± 0.043
pdr5∆
  protein stability index: 1.25 ± 0.041
san1∆
  protein stability index: 1.21 ± 0.07
ubr1∆
  protein stability index: 1.2 ± 0.057

## YQRPMQVQGQQQAQSFV [SSN3]
doa10∆
  protein stability index: 2.42 ± 0.044
pdr5∆
  protein stability index: 2.71 ± 0.045
san1∆
  protein stability index: 2.5 ± 0.05
ubr1∆
  protein stability index: 2.63 ± 0.035

## NGERKFLKEKDTVAELQ [FAS2]
pdr5∆
  protein stability index: 3.38 ± 0.23
san1∆
  protein stability index: 3.11 ± 0.24
ubr1∆
  protein stability index: 3.02 ± 0.076

## GHEELKRRIEEEQEKIN [ISW2]
doa10∆
  protein stability index: 3.36 ± 0.082
pdr5∆
  protein stability index: 3.47 ± 0.086
san1∆
  protein stability index: 3.13 ± 0.062
ubr1∆
  protein stability index: 3.35 ± 0.055

## QNNEQNPIDPFNIIREF [YDL116W/NUP84]
doa10∆
  protein stability index: 3.07 ± 0.052
pdr5∆
  protein stability index: 3.15 ± 0.051
san1∆
  protein stability index: 3.2 ± 0.04
ubr1∆
  protein stability index: 3.17 ± 0.041

## NQNTLKEISARRYKLLT [POP1]
doa10∆
  protein stability index: 2.13 ± 0.049
pdr5∆
  protein stability index: 2.35 ± 0.045
san1∆
  protein stability index: 2.1 ± 0.067
ubr1∆
  protein stability index: 2.65 ± 0.045

## ARSIDVEKGVNPTKSKE [ECM29]
doa10∆
  protein stability index: 3.32 ± 0.26
pdr5∆
  protein stability index: 3.51 ± 0.24
ubr1∆
  protein stability index: 3.2 ± 0.29

## VLIKKGQSAGKLAAIVE [RPL14A]
doa10∆
  protein stability index: 2.99 ± 0.2
pdr5∆
  protein stability index: 3.14 ± 0.16
ubr1∆
  protein stability index: 2.77 ± 0.18

## LGRVRNHFIFNVESAGA [RPC40]
doa10∆
  protein stability index: 1.38 ± 0.062
pdr5∆
  protein stability index: 1.5 ± 0.069
san1∆
  protein stability index: 1.62 ± 0.09
ubr1∆
  protein stability index: 1.27 ± 0.065

## MQVYLVPIERVAQLKPF [RPC37]
doa10∆
  protein stability index: 1.9 ± 0.079
pdr5∆
  protein stability index: 1.77 ± 0.065
san1∆
  protein stability index: 1.87 ± 0.063
ubr1∆
  protein stability index: 2.54 ± 0.058

## LLQGGAKVVVTTSRFSK [FAS2]
doa10∆
  protein stability index: 2.72 ± 0.077
pdr5∆
  protein stability index: 2.43 ± 0.068
san1∆
  protein stability index: 2.72 ± 0.056
ubr1∆
  protein stability index: 2.78 ± 0.047

## GISDDENDEEDIYMHDV [RRP4]
doa10∆
  protein stability index: 3.33 ± 0.13
pdr5∆
  protein stability index: 3.31 ± 0.14
san1∆
  protein stability index: 2.99 ± 0.12
ubr1∆
  protein stability index: 3.46 ± 0.12

## FNDFSNIKTSEWDLYPQ [REC8]
doa10∆
  protein stability index: 2.84 ± 0.082
pdr5∆
  protein stability index: 2.92 ± 0.053
san1∆
  protein stability index: 2.78 ± 0.075
ubr1∆
  protein stability index: 3.15 ± 0.082

## LFNESFIMASVGKYDKA [SRP72]
doa10∆
  protein stability index: 3 ± 0.29
pdr5∆
  protein stability index: 2.85 ± 0.27

## VKARHGGCDYIFSLLTG [CYT1]
doa10∆
  protein stability index: 2.88 ± 0.1
pdr5∆
  protein stability index: 3.02 ± 0.12
san1∆
  protein stability index: 2.61 ± 0.086
ubr1∆
  protein stability index: 2.72 ± 0.053

## HPIRLYTRYLDRIYMLF [PRP8]
doa10∆
  protein stability index: 2.63 ± 0.067
pdr5∆
  protein stability index: 1.76 ± 0.063
san1∆
  protein stability index: 2.29 ± 0.1
ubr1∆
  protein stability index: 2.4 ± 0.042

## IRRLRVLRRLLAKYRDA [RPL19A]
doa10∆
  protein stability index: 1.19 ± 0.067
pdr5∆
  protein stability index: 1.41 ± 0.058
san1∆
  protein stability index: 1.34 ± 0.17
ubr1∆
  protein stability index: 1.25 ± 0.057

## PQGRQSTTFADCPVVPA [RPC40]
doa10∆
  protein stability index: 2.89 ± 0.067
pdr5∆
  protein stability index: 2.92 ± 0.078
san1∆
  protein stability index: 2.49 ± 0.1
ubr1∆
  protein stability index: 2.87 ± 0.059

## RRKFDPSSSENVMTPRE [UBP6]
pdr5∆
  protein stability index: 1.99 ± 0.11
san1∆
  protein stability index: 2.45 ± 0.22
ubr1∆
  protein stability index: 2.96 ± 0.23

## RHLVNRGREEAASFKKL [PRE10]
doa10∆
  protein stability index: 3.07 ± 0.059
pdr5∆
  protein stability index: 3.2 ± 0.1
san1∆
  protein stability index: 3 ± 0.084
ubr1∆
  protein stability index: 2.85 ± 0.089

## RYSRQFINNVLSNPSNQ [GRR1]
doa10∆
  protein stability index: 2.28 ± 0.08
pdr5∆
  protein stability index: 2.45 ± 0.082
san1∆
  protein stability index: 1.91 ± 0.1
ubr1∆
  protein stability index: 2.07 ± 0.076

## ELFKDYKPGSITLENIT [MED1]
doa10∆
  protein stability index: 2.53 ± 0.067
pdr5∆
  protein stability index: 2.36 ± 0.053
san1∆
  protein stability index: 1.96 ± 0.062
ubr1∆
  protein stability index: 2.11 ± 0.042

## LYNDADVLTLENIQEGT [CDC53]
doa10∆
  protein stability index: 3.18 ± 0.1
pdr5∆
  protein stability index: 3.03 ± 0.087
san1∆
  protein stability index: 3.17 ± 0.044
ubr1∆
  protein stability index: 3.2 ± 0.046

## FAIRDDRDHINPDDLMK [RPT4]
doa10∆
  protein stability index: 2.65 ± 0.15
pdr5∆
  protein stability index: 2.99 ± 0.14
san1∆
  protein stability index: 3.51 ± 0.093
ubr1∆
  protein stability index: 3.33 ± 0.11

## DTFDGSDLRVLSGSISE [FAS1]
doa10∆
  protein stability index: 1.6 ± 0.079
pdr5∆
  protein stability index: 2.34 ± 0.067
san1∆
  protein stability index: 1.49 ± 0.14
ubr1∆
  protein stability index: 1.79 ± 0.059

## PSSEKPNIRTMSGTTKR [SSN2]
pdr5∆
  protein stability index: 2.45 ± 0.27

## DYSRKQLGYGKFLILNE [NUT1]
doa10∆
  protein stability index: 2.97 ± 0.2
pdr5∆
  protein stability index: 2.31 ± 0.14
ubr1∆
  protein stability index: 3.18 ± 0.22
